Reference: publication PMC2173223 (The Journal of Cell Biology, 2002)

Biological target: T1, Tim13p (recombinant, co-expressed with Tim8p in E. coli) (S. cerevisiae, UniProt P53299 1-105)
T1 sequence (looked up): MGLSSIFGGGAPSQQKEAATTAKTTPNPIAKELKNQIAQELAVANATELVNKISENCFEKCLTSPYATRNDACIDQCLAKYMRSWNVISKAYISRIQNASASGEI
Assay: quantitative amino acid analysis

stoichiometry N: 1 molar ratio
B1: Tim8p (recombinant, co-expressed with Tim13p in E. coli) (natural protein, S. cerevisiae, UniProt P57744 1-87, looked up)
chain: MSSLSTSDLASLDDTSKKEIATFLEGENSKQKVQMSIHQFTNICFKKCVESVNDSNLSSQEEQCLSNCVNRFLDTNIRIVNGLQNTR
